Results on eight molecules are retold here after US20210364527A1 (QUANTUM SI, published 2021).

B4: FITC-labeled RA peptide RAKLDEESILKQK-FITC (peptide)
peptide: RAKLDEESILKQK-{FITC′}
B7: RA peptide (N-terminal arginine, penultimate alanine; rest of sequence not given) (peptide)
peptide: RAKLDEESILKQK-{FITC′}
B8: IR peptide IRKLDEESILKQK (XXKLDEESILKQK, XX = IR) (peptide)
peptide: IRKLDEESILKQK
notes: Biolayer interferometry

Assay [1] concerns the target B4. Kind of assay: fluorescence polarization titration with increasing concentration of UBR protein.
The target in assay [2] is T1, KA peptide KAKLDEESILKQK (XAKLDEESILKQK, X = K).
T1 construct: Biolayer interferometry single-point screen of UBR-box homologs
T1 peptide: KAKLDEESILKQK
In words: BLI heatmap, single-point screen.

Assay [3] concerns the target B7. In words: fluorescence polarization. For orientation: Fluorescence polarisation rises when a labelled molecule tumbles more slowly, as on binding a larger partner.
A further assay concerns the target T2, I (IAWLVK).
T2 chain: IAWLVK
Kind of assay: dynamic sequencing of EFIAWLVK with PS610, PS372, hTET and pfuTET.

The target in assay [4] is T3, W peptide WAKLDEESILKQK (XAKLDEESILKQK, X = W).
T3 construct: Immobilized on the biolayer interferometry sensor
T3 peptide: WAKLDEESILKQK
Kind of assay: biolayer interferometry, peptide immobilized on the sensor, 30 C. (In general: Biolayer interferometry detects binding as a change in optical thickness at a sensor tip.)

Assay [5] deals with T4, Y peptide YAKLDEESILKQK (XAKLDEESILKQK, X = Y).
T4 construct: Immobilized on the biolayer interferometry sensor
T4 peptide: YAKLDEESILKQK
The description is as above.

Assay [6] deals with T5, FITC-labeled YA peptide YAKLDEESILKQK-FITC.
T5 peptide: YAKLDEESILKQK-{FITC′}
In words: fluorescence polarization, single point.

In assay [7] the target is T6, FITC-labeled WA peptide WAKLDEESILKQK-FITC.
T6 peptide: WAKLDEESILKQK-{FITC′}
In words: fluorescence polarization, single point.

In assay [8] the target is T7, FITC-labeled FA peptide FAKLDEESILKQK-FITC.
T7 peptide: FAKLDEESILKQK-{FITC′}
Kind of assay: fluorescence polarization, single point.

In assay [9] the target is T8, LA peptide LAKLDEESILKQK (XAKLDEESILKQK, X = L).
T8 construct: Immobilized on the biolayer interferometry sensor
T8 peptide: LAKLDEESILKQK
In words: biolayer interferometry as in Example 12.

Assay [10] deals with T9, F peptide FAKLDEESILKQK (XAKLDEESILKQK, X = F).
T9 construct: Immobilized on the biolayer interferometry sensor
T9 peptide: FAKLDEESILKQK
Kind of assay: biolayer interferometry as in Example 12.

The target in assay [11] is T10, VA peptide VAKLDEESILKQK (XAKLDEESILKQK, X = V).
T10 construct: Immobilized on the biolayer interferometry sensor
T10 peptide: VAKLDEESILKQK
In words: biolayer interferometry as in Example 12.

Assay [12] addresses T11, IA peptide IAKLDEESILKQK (XAKLDEESILKQK, X = I).
T11 construct: Immobilized on the biolayer interferometry sensor
T11 peptide: IAKLDEESILKQK
Kind of assay: biolayer interferometry as in Example 12.

Assay [13] addresses T12, IQ peptide IQKLDEESILKQK (XXKLDEESILKQK, XX = IQ).
T12 construct: Biolayer interferometry
T12 peptide: IQKLDEESILKQK
In words: biolayer interferometry.

Assay [14] has as its target T13, VR peptide VRKLDEESILKQK (XXKLDEESILKQK, XX = VR).
T13 construct: Biolayer interferometry
T13 peptide: VRKLDEESILKQK
In words: biolayer interferometry.

Assay [15] deals with B8. In words: biolayer interferometry.
The target in assay [16] is T14, FITC-labeled LA peptide LAKLDEESILKQK-FITC.
T14 peptide: LAKLDEESILKQK-{FITC′}
In words: fluorescence polarization, FITC-peptide with ClpS:streptavidin complex, 23 C.

The target in assay [17] is T15, FITC-labeled VA peptide VAKLDEESILKQK-FITC.
T15 peptide: VAKLDEESILKQK-{FITC′}
The assay is described as above.

Assay [18] has as its target T16, FITC-labeled IA peptide IAKLDEESILKQK-FITC.
T16 peptide: IAKLDEESILKQK-{FITC′}
The assay is described as above.

Assay [19] deals with T1, KA peptide KAKLDEESILKQK …. In words: biolayer interferometry single-point screen, 30 C.
The target in assay [20] is T17, RA peptide RAKLDEESILKQK (XAKLDEESILKQK, X = R).
T17 construct: Biolayer interferometry single-point screen of UBR-box homologs
T17 peptide: RAKLDEESILKQK
In words: biolayer interferometry single-point screen, 30 C.

Assay [21] addresses T18, Kluyveromyces lactis UBR-box domain (PS528) (Kluyveromyces lactis, UniProt O60014 101-182).
T18 construct: UBR-streptavidin complex in fluorescence polarization
T18 sequence: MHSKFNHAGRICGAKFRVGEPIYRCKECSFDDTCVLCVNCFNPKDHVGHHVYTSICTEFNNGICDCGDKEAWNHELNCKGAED
Kind of assay: fluorescence polarization titration with increasing concentration of UBR protein.

The target in assay [22] is T8, LA peptide LAKLDEESILKQK …. Kind of assay: biolayer interferometry as in Example 12.
The target of assay [23] is T9, F peptide FAKLDEESILKQK (XAKLDEESILKQK, …). In words: biolayer interferometry as in Example 12.
Assay [24] concerns the target T10, VA peptide VAKLDEESILKQK …. Kind of assay: biolayer interferometry as in Example 12.
For assay [25], the target named is T11, IA peptide IAKLDEESILKQK …. Kind of assay: biolayer interferometry as in Example 12.
A further assay addresses T19, LI.
T19 construct: also called LIFAGK
T19 chain: LIFAGK
In words: 3-binder dynamic sequencing of [..]; binder assigned by the binding preference in Table 1.

Another assay addresses T20, IF.
T20 construct: also called IFAGK
T20 chain: IFAGK
Described as above.

The target in assay [26] is T8, LA peptide LAKLDEESILKQK …. In words: biolayer interferometry as in Example 12.
The target in assay [27] is T9, F peptide FAKLDEESILKQK (XAKLDEESILKQK, …). In words: biolayer interferometry as in Example 12.
Assay [28] concerns the target T10, VA peptide VAKLDEESILKQK …. Kind of assay: biolayer interferometry as in Example 12.
The target in assay [29] is T11, IA peptide IAKLDEESILKQK …. In words: biolayer interferometry as in Example 12.
For assay [30], the target named is T18, Kluyveromyces lactis UBR-box domain …. Kind of assay: fluorescence polarization.
In assay [31] the target is T21, ClpS from Thermosynochoccus elongatus (teClpS) (Thermosynechococcus elongatus, UniProt Q8DJY3 6-94).
T21 construct: Dye-labelled or streptavidin-complexed depending on the assay; also called Thermosynechococcus elongatus ClpS
T21 sequence: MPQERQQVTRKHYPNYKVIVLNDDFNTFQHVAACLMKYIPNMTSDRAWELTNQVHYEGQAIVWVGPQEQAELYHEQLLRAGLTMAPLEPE
Kind of assay: biolayer interferometry.

Like-named read-outs stand apart in the source and are kept apart here. Primed or numbered codes have the meaning given here. Ends that are not written are not given here. FITC′ = not defined here

B1: Kluyveromyces marxianus UBR1 (PS621) (other)
chain: MHSKFSHAGRICGAKFKVGEPIYRCKECSFDDTCVLCVNCFNPKDHTGHHVYTTICTEFNNGICDCGDKEAWNHTLFCKAEEG
notes: UBR-streptavidin complex in fluorescence polarization
Consider B1, for which the values for the Kd in assay [1] and in assay [3] were 420 nM and 321 nM, respectively. The binding result in [2] is on record as “binds”.

B2: PS372 (ClpS homolog) (other)
chain: MAFPARGKTAPKNEVRRQPPYNVILLNDDDHTYRYVIEMLQKIFGFPPEKGFQIAEEVDRTGRVILLTTSKEHAELKQDQVHSYGPDPYLGRPCSGSMTCVIEPAV
notes: also called PS372-Bt; PS372-Bt-mPEG4
As to B2, the binding result in the assay with I (IAWLVK) is “binds”; in assay [4] it was “no binding”; in assay [5] it was “no binding”; in assay [6], “no binding”; in [7], “no binding”; in assay [8], “no binding”. For the same molecule, the binding result in assay [9] is on record as “binds”; in [10], “no binding”; in assay [11] it was “binds”; in assay [12] it was “binds”; in assay [13] it was “binds”; in [14], “no binding”. The binding result in assay [15], in assay [16], in assay [17] and in assay [18] was “binds” each time.

B3: Vombatus ursinus UBR-box domain (PS522) (other)
chain: MLCGKVFKSGETTYSCRDCAIDPTCVLCMNCFQSSVHKNHRYKMHTSTGGGFCDCGDTEAWKTGPFCTIHEP
On to B3, for which the binding result in assay [19] and in assay [20] was “binds” each time.
With B4, the Kd (commonly a measure of binding affinity in units of concentration) in assay [21] is 460 nM.

B5: PS558 (other)
chain: MTATTADPDRTTAEKTTKKARRSGQPKRQPRYHVILWNDNDHTYQYVVAMLQQLFGHPATTGLKLATEVDRTGRAVILTTTREHAELKRDQIHAFGADRLLARSKGAMSASIEPEAE
For B5, the binding result in assay [22] is “binds”; in [23], “no binding”; in [24], “binds”; in assay [25] it was “binds”.

B6: Planctomycetia bacterium ClpS homolog (PS557) (other)
chain: MPTAASATESAIEDTPAPARPEVDGRTKPKRQPRYHVVLWNDDDHTYQYVVVMLQSLFGHPPERGYRLAKEVDTQGRVIVLTTTREHAELKRDQIHAFGYDRLLARSKGSMKASIEAEE
As to B6, the binding result with LI is “binds”; in the assay with IF it was “binds”; in [26] it was “binds”; in assay [27], “no binding”; in assay [28], “binds”; in [29], “binds”.
For B7, binding in [30] was characterised by a dissociation constant (Kd) of 403 nM.
B8: the binding result in assay [31] was “binds”.
